Earlier results, collected in article PMC12818570.

Target: His57 (UniProt position 57, ILPVTHTEISP)
Test: electrophysiology (solid-supported membrane electrophysiology, SSME, on isolated lysosomes)
Conditions: 90 mM NaCl + 50 mM NaCl or KCl, 5 mM MgCl2; 30 mM HEPES, 30 mM MES, titrated with HCl or NaOH; channel in lysosomal membrane, pH equilibrated symmetrically on both sides, no applied voltage

Transmembrane protein 175 (TMEM175), endosomal/lysosomal cation channel (Homo sapiens)
pKa: 7.0 ± 0.1
